Results published in a protein production outcome set (Wang et al. 2014).

Test: label from the status in PepcDB records

Sequence | protein production
MEALVRCLRSGQFLLIIDNLESVLQPDRQWGSLFYGDFFQAWIESGGNSKVLVTTRERPELKGFEWLTLKGLQVDEGVALLTALGIKGNLGEFVELVDGHPLLLRLVADLLKEEYPQDPDLSRLADLGLGNLQQLLTDSQVVGVHRRENVGMVLVLDASFHRLSELQKALLLNISVYRGAVDSAAAVAMLPGNSAAEIEKELRNIVKRSLLVEKLNGKRRFEFQPVVLEYVRYKAGDQSEAHQRAIDYYRSVAKQPPWTTKDDVREYLEIFDHFYQLQDYDSAFDNIRVCSKFLGLCGFFVDKVELYGQLISKWKEIGERENWNYGASLTALGNAYRYLGEYQRAIELFQQSLEIFRDIGDRNGVSNSLIGLGNTYNSVGEYQRAIELFQQSLEISRDIGDRNGVGGSLMGLGNAYNSVGEYQRAIELFQQSLEISRDIGDRNGVGNSLIGLGNAYHSLGEYQRAIEFRQQSLEIFRDMGDRNGVSISLNNLGNTYYFLGEYQRAIEFHQQSLEISRDIGDCNGVGRSLNNLGNAYYSLGKYQQAIEFHQQSLEIKRDIGDRNGVGTSLNNLGTAYSSLGKYQRAIELFQQSLEIKRDIGDRNGVGTSLMNLSNAYYRCGKIREAFAVWHQAESIFQELQLPFEAMPYPQWLKSLIKFAQRGWFQFILCFIFGLIAFPFALVWLILLFLWPSISSQFRR | failed
PFIMDAPRDLNISEGRMAELKCRTPPMSSVKWLLPNGTVLSHASRHPRISVLNDGTLNFSHVLLSDTGVYTCMVTNVAGNSNASAYLNVS | not failed
MAQEVSPESYKDLVLFLATAGIVAPIFKRLKINPILGYLLAGVILGPFGLGRFIPYAPWLDYFTVDNPDEIAQLAEFGVVFLLFMIGLELSWERLRLMRRWVFGLGAVQVIGCSLALGAGGMLLGLEPVVALTIGAALTLSSTAIAVPVLAERRRLHSEAGRATFSVLLFQDLAVAPILITLAILGRGNGSFQLQDLLALAPAALGLAVIVLVGRLALRPMLKSVAKAKSEEMFMAACLLVIIGAGMVAALSGLSMALGAFVAGVLLAETEYRHEVEVKIEPFKGLLLSLFFVSLGIRLDLSLLAAQPAAILGTALGLLVLKTAVVFGSGLLMGLNRRAAIEAALILAAGGEFAFVLLDNAMSAQVVPPAIGQAVLVSATLTMFLIPGLAALGGYLGRKNAPLPVSEAPPSTANEPDRLGPEPAGQVLVIGYGRVGRLVGDMLGRHDLPWIAVEREARLVEQGRRDGARIYYGDASRLELLERCGLATARAVVVTMDAFEVAEAVVVAARGARPDVPIVVRARDARHAARLYELGATDAVPETIEASLQLSEAVLVDIGVPMGLVIASIHERRDEYRKKLNRPDALGGRRRRLRDATLR | failed
MSEKMVAIMKTKPGYGAELVEVDVPKPGPGEVLIKVLATSICGTDLHIYEWNEWAQSRIKPPQIMGHEVAGEVVEIGPGVEGIEVGDYVSVETHIVCGKCYACRRGQYHVCQNTKIFGVDTDGVFAEYAVVPAQNIWKNPKSIPPEYATLQEPLGNAVDTVLAGPISGKSVLITGAGPLGLLGIAVAKASGAYPVIVSEPSDFRRELAKKVGADYVINPFEEDVVKEVMDITDGNGVDVFLEFSGAPKALEQGLQAVTPAGRVSLLGLYPGKVTIDFNNLIIFKALTIYGITGRHLWETWYTVSRLLQSGKLNLDPIITHKYKGFDKYEEAFELMRAGKTGKVVFMLK | not failed
SDISLLLDVANAACHKGHVADARSIYEGVLAVRPGFAPARLGQALSHAVVNEFAEAERIINEEVLAEAPEDTDAKALLGLTYFLAGRDEEARDVLRPVAEGDTPAAYVARG | failed
MDRRRFIKGSMAMAAVCGTSGIASLFSQAAFAADSDIADGQTQRFDFSILQSMAHDLAQTAWRGAPRPLPDTLATMTPQAYNSIQYDAEKSLWHNVENRQLDAQFFHMGMGFRRRVRMFSVDPATHLAREIHFRPELFKYNDAGVDTKQLEGQSDLGFAGFRVFKAPELARRDVVSFLGASYFRAVDDTYQYGLSARGLAIDTYTDSKEEFPDFTAFWFDTVKPGATTFTVYALLDSASITGAYKFTIHCEKSQVIMDVENHLYARKDIKQLGIAPMTSMFSCGTNERRMCDTIHPQIHDSDRLSMWRGNGEWICRPLNNPQKLQFNAYTDNNPKGFGLLQLDRDFSHYQDIMGWYNKRPSLWVEPRNKWGKGTIGLMEIPTTGETLDNIVCFWQPEKAVKAGDEFAFQYRLYWSAQPPVHCPLARVMATRTGMGGFPEGWAPGEHYPEKWARRFAVDFVGGDLKAAAPKGIEPVITLSSGEAKQIEILYIEPIDGYRIQFDWYPTSDSTDPVDMRMYLRCQGDAISETWLYQYFPPAPDKRQYVDDRVMS | failed
